Data taken from the supplement of paper PMC9170038.

Test system: MS2 coat protein
Experiment: apparent KD of MS2 coat protein; designed switch direction (-1 OFF switch, 1 ON switch): 1; higher = weaker reporter binding
Method in brief: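 SNAP-549-labelled MS2 coat protein was titrated, doubling from 0.7 or 1.5 nM to 3 µM, over designed RNA switches transcribed on Illumina chips by stalled E. coli RNA polymerase. Runs were done without input, with 200 uM small-molecule ligand, or with an oligonucleotide input. Apparent KD is the per-design median over clusters of curve-fitted normalised fluorescence.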

[1] = Eterna round: R95, input ligand: FMN 200 uM
[2] = Eterna round: R95, input ligand: microRNA oligo, concentration not stated
[3] = Eterna round: R95, input ligand: none
[4] = input ligand: microRNA oligo, concentration not stated

Sequence | apparent KD of MS2 coat protein [1] [nM] | apparent KD of MS2 coat protein [2] [nM] | apparent KD of MS2 coat protein [3] [nM] | apparent KD of MS2 coat protein (input ligand: FMN 200 uM) [nM] | apparent KD of MS2 coat protein [4] [nM] | apparent KD of MS2 coat protein (input ligand: none) [nM]
GUGGCCUAGGCACAGGAUAUGUUUCUCGUAACAUGAGGAUCACCCAUGUGCCUUUGAGAUUUUAUGCAGAAGGGUGCACGCCACG [JL Atiinbe mod 04] (puzzle: Same State 2) | 20.6 | 273 | 491 | – | – | –
GUGGUCAGACAUGAGGAUCACCCAUGUGGAAUAAAUAACAGACAGGAUAUUUAAUAUAGGAUAUAGAAGAAGGGUCGAUUGGUG (Eterna round: R96, puzzle: Same State NG 3) | – | – | – | 117 | 87.5 | 103
GUGGUCAGACAUGAGGAUCACCCAUGUGGAAUAAAUAACGGACAGGAUAUGCAAUAUAGGAUAUAGUAGAAGGGUUGAUUGGUG (Eterna round: R96, puzzle: Same State NG 3) | – | – | – | – | 49.3 | –
GUGGUCAGACAUGAGGAUCACCCAUGUGGAAUAAAUAACGGUGAGGAUAUGCAAUAUAGGAUAUAGUAGAAGGCAUGAUUGGUG (Eterna round: R96, puzzle: Same State NG 3) | – | – | – | 164 | 104 | 132
GUGGUCAGACAUGAGGAUCACCCAUGUGGAAUAAAUAAGGAACAGGAUAUCUAAUAUAGGAUAUAAGAGAAGGGUUGGUUGGUG (Eterna round: R96, puzzle: Same State NG 3) | – | – | – | – | 61.9 | –
GUGGUCAGACAUGAGGAUCACCCAUGUGGAAUAAAUAAGGUUUAGGAUAUGGAAUAUAGGAUAUACCAGAAGGGAGGGUUGGUG (Eterna round: R96, puzzle: Same State NG 3) | – | – | – | – | 90.4 | –
GUGGUGAAUUAAGGAUAUCGAGUCAAGAUGUUAAACAUGAGGAUCACCCAUGUGGGUUGCGGUAUCGAGAAGGUAAUUUACGGG [salish99_SSNG2_r04_506] (Eterna round: R96, puzzle: Same State NG 2) | – | – | – | 17.3 | 20.1 | 30.3
GUGUGUUGCGGGCAGGAUAUGUACUUGAGUACAUGAGGAUCACCCAUGUGCGGGUGUUUCACCCGACAGAAGGGCCUAUCGCGAC [JL-ss2-3.25 ViennaUCT mod] (Eterna round: R96, puzzle: Same State 2) | – | – | – | 252 | 457 | 1070
GUGUGUUGCGGGCAGGAUAUGUACUUGAGUACAUGAGGAUCACCCAUGUGCGGGUGUUUCACCCGACAGAAGGGCCUAUCGCGAC [JL-ss2-3.25 ViennaUCT mod] (puzzle: Same State 2) | 145 | 136 | 664 | – | – | –
GUGUUACAUGAGGAUCACCCAUGUUGUUGUAGAUAAGGAUAUAUGGGAACGAGAGAAAUAAUAGAAGGUAUUAGGC [JR_SS1_Sub060] (puzzle: Same State 1) | – | 77.4 | – | – | – | –
GUUACAUGAGGAUCACCCAUGUAUGUGUGGGAGUAAGUGUCUUAGGAUAUCUAGUAUUUAAUUGAAGAGAAGGAAGAUUGUUGU [JMF's solution 67] (Eterna round: R96, puzzle: Same State NG 3) | – | – | – | 109 | 87.2 | 108
GUUACAUGAGGAUCACCCAUGUAUGUGUGGGAGUAAGUGUCUUAGGAUAUCUAGUGUUUAAUUUAAGAGAAGGAAGAUUGUUGU [JMF's solution 53] (Eterna round: R96, puzzle: Same State NG 3) | – | – | – | 134 | 96.8 | 116
